From publication doi:10.1101/2023.09.11.557288, “An explainable language model for antibody specificity prediction using curated influenza hemagglutinin antibodies” (bioRxiv, 2023)

Key:
[1] = target: T1, mini-HA #4900 (Influenza A virus H1N1, designed stem …, stabilised); test: BLI; His-tagged antigen at 0.5 uM loaded on anti-Penta-HIS (HIS1K) biosensors, Fab in solution; room temperature; 1x PBS pH 7.4, 0.01% BSA, 0.002% Tween 20; 1:1 binding model; settings: both partners purified
T1 construct: also called H1 stem-based construct; HA stem-based construct without the HA head domain; not shown: 6xHis, C-terminal, kept

[2] = target: T2, H1N1 A/Solomon Islands/3/2006 (SI06) HA (Influenza A virus, A/Solomon …, UniProt A7Y8I1); test: as above; settings: both partners purified
T2 construct: also called HA from H1N1 A/Solomon Island/3/2006

B1: 310–18A5 Fab (Fab, V domains shown)
VH: QVQLMQSGTEVKKPGSSVRVSCKASGSTFNSDAISWVRQAPGQGLEWMGGILGMFRTVNYAQRFQGRVTITADELMSTAYMELSGLRFEDTAVYYCARGDGYKPNFLRYWGQGTLITVSS
VL: TLSLSPGERATLSCRASQSVSSTSLAWYQQKFGQAPRLLIYGASNRATGIPDRFSGSGSGTDFTLTISRLEPEDFAVYYCQQYGNSLTFGGGTKVEIK
[1]
  Kd: 1 nM
[2]
  Kd: 0.2 nM
